# From article PMC4245941, “Timely binding of IHF and Fis to DARS2 regulates ATP–DnaA production and replication initiation” (Nucleic Acids Research, 2014)
# B1: DnaA (wild type) (natural protein, Escherichia coli, UniProt P03004 1-467, looked up)
# chain: MSLSLWQQCLARLQDELPATEFSMWIRPLQAELSDNTLALYAPNRFVLDWVRDKYLNNINGLLTSFCGADAPQLRFEVGTKPVTQTPQAAVTSNVAAPAQVAQTQPQRAAPSTRSGWDNVPAPAEPTYRSNVNVKHTFDNFVEGKSNQLARAAARQVADNPGGAYNPLFLYGGTGLGKTHLLHAVGNGIMARKPNAKVVYMHSERFVQDMVKALQNNAIEEFKRYYRSVDALLIDDIQFFANKERSQEEFFHTFNALLEGNQQIILTSDRYPKEINGVEDRLKSRFGWGLTVAIEPPELETRVAILMKKADENDIRLPGEVAFFIAKRLRSNVRELEGALNRVIANANFTGRAITIDFVREALRDLLALQEKLVTIDNIQKTVAEYYKIKVADLLSKRRSRSVARPRQMAMALAKELTNHSLPEIGDAFGGRDHTTVLHACRKIEQLREESHDIKEDFSNLIRTLSS
# notes: DnaA, chromosomal replication initiator protein, Escherichia coli, wild type; Used loaded with ADP or ATP (not covalent); also called ADP–DnaA; ATP–DnaA
# Target: the molecule itself
# Test: native gel or EMSA; DnaA (ADP or ATP form) incubated at 30°C for 5 min in dissociation buffer (20 mM Tris-HCl pH 7.5, 100 mM potassium glutamate, 10 mM magnesium acetate, 2 mM ATP) with DARS2ΔRight or DARS2ΔRight/subFBS1 DNA (15 fmol) and poly (dI-dC), 5% PAGE; DnaA multimers form on the DNA; without or with IHF and Fis
protein,measurement,value
B1,binding result,binds
